Measured values published in patent publication US20240255495 (UNIVERSITY OF PITTSBURGH-OF THE COMMONWEALTH SYSTEM OF …, published 2024).

T1: PTK7 (protein tyrosine kinase 7), recombinant (UniProt Q13308 Q13308:31-704)
T1 sequence: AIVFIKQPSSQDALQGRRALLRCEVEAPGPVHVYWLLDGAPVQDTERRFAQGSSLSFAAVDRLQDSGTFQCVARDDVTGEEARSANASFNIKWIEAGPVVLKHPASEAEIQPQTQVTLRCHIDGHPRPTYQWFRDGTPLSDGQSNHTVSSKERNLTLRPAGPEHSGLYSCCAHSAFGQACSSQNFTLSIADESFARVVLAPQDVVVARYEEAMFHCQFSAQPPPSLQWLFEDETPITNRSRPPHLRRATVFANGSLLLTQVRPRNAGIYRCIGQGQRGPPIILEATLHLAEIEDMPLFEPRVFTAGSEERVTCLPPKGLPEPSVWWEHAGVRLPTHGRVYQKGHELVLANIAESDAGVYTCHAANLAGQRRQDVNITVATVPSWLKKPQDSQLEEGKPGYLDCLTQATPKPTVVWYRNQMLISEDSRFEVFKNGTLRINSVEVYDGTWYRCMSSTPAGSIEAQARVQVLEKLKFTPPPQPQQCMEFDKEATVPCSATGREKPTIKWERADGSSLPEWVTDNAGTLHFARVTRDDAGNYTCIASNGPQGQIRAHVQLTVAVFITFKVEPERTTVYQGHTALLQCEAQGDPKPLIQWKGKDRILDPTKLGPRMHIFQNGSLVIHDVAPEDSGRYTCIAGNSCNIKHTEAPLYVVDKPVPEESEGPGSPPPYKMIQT


What was measured:
thrombin = thrombin (UniProt P00734;P00734 P00734:328-363,P00734:364-622); assay: FP
[1] = biological target: T1, PTK7 (protein tyrosine kinase 7), …

Row | Binder | Kd (thrombin) | binding result [1]
1 | GGTTGGTGTGGTTGG (ssDNA) [TBA unmodified] | 220 nM | 
2 | ATCTAACTGCTGCGCCGCCGGGAAAATACTGTACGGTTAGA (ssDNA, T27 conjugated to pyridinium oxime catalyst PyOx) [sgc8c(27)-PyOx] |  | binds
